Measured values from PMC6467748.

Target: mouse-derived mAb 735 (mo735) (mouse)
Assay: SPR

“chicken brain-derived polysialylated neural cell adhesion molecule (NCAM) (from UniProt P13590 20-711) (natural protein)” was tested, and the Kd was 0.0102 µM.
